# How the values were obtained:
# latent PDGF-CC = latent PDGF-CC (Homo sapiens, UniProt Q9NRA1); conditions: cited from earlier work
# [1] = target: chimeric PDGF-D/PDGF-C molecule with CUB domain from PDGF-D and growth factor domain from PDGF-C (UniProt Q9GZP0)
# [2] = target: chimeric PDGF-C/PDGF-D molecule with CUB domain from PDGF-C and growth factor domain from PDGF-D (UniProt Q9NRA1)
# Sequence of chimeric PDGF-C/PDGF-D molecule with CUB domain from PDGF-C and growth factor domain from PDGF-D (Q9NRA1 whole entry, looked up, change not shown, the tested form may be a part): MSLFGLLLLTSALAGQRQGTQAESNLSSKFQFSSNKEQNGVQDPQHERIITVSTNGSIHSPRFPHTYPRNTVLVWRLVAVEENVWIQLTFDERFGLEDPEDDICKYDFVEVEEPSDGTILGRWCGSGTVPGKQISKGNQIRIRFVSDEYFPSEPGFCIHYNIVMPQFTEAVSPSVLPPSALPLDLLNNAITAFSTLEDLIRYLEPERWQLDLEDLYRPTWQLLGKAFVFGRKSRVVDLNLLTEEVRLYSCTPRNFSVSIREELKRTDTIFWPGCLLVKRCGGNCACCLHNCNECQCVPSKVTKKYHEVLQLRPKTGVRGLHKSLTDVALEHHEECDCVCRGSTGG
# Sequence of latent PDGF-CC (Q9NRA1 23-345): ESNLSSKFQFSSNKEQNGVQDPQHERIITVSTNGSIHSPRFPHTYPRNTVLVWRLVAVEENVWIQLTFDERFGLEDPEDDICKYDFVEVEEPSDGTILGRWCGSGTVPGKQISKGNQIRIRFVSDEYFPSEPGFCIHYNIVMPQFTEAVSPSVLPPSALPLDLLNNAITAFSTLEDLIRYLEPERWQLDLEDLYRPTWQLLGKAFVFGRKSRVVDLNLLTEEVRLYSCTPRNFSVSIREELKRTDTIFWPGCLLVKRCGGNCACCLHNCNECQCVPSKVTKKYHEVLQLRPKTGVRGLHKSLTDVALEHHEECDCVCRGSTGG
# Sequence of chimeric PDGF-D/PDGF-C molecule with CUB domain from PDGF-D and growth factor domain from PDGF-C (Q9GZP0 other isoform, or with tags, fused parts or gaps mutant): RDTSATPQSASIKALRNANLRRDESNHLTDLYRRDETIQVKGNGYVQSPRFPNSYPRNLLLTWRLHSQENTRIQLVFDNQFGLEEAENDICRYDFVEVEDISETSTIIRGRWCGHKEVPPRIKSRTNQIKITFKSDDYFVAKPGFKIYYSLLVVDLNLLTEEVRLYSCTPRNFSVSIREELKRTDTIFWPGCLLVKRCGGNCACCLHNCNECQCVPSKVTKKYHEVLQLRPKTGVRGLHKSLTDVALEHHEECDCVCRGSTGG
Substance,activation of latent PDGF-CC (latent PDGF-CC; Fredriksson et al. 2004),substrate specificity of the protease (latent PDGF-CC; PDGF-CC versus PDGF-DD),"proteolytic release of the growth factor domain (co-transfection, SDS-PAGE and immunoblot) [1]","proteolytic release of the growth factor domain (co-transfection, SDS-PAGE and immunoblot) [2]"
"tPA: tissue plasminogen activator, specific activator of PDGF-CC",activates latent PDGF-CC,specific for PDGF-CC,–,–
urokinase plasminogen activator (uPA),–,–,Analysis of all the PDGF-D/PDGF-C chimeric molecules revealed that no released growth factor domain could be visualized using specific antibodies,Analysis of all the PDGF-D/PDGF-C chimeric molecules revealed that no released growth factor domain could be visualized using specific antibodies
